Data on one molecule can be found in article PMC8824505, “Complexes of Ghrelin GHS-R1a, GHS-R1b, and Dopamine D1 Receptors Localized in the Ventral Tegmental Area as Main Mediators of the Dopaminergic Effects of Ghrelin” (The Journal of Neuroscience, 2022).

This assay concerns the target dopamine D1 receptor (D1R) (UniProt P21728 1-446). Put plainly: cell-based or functional assay.

Chain of dopamine D1 receptor (D1R) (P21728 whole entry): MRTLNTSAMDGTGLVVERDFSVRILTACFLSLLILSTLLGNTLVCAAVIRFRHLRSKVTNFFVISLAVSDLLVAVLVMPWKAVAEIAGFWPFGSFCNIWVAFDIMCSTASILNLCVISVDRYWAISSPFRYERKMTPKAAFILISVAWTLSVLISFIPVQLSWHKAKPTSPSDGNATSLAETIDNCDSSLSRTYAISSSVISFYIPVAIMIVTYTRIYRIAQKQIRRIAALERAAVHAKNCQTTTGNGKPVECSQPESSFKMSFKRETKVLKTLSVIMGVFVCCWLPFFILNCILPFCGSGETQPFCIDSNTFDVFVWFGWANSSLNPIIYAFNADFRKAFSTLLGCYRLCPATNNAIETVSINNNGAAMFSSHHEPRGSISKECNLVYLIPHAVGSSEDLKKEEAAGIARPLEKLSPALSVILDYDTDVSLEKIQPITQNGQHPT

B1: GHS-R1a fused to GFP2 (GHS-R1a-GFP2) (receptor, human, UniProt Q92847-1 1-366, looked up)
chain: MWNATPSEEPGFNLTLADLDWDASPGNDSLGDELLQLFPAPLLAGVTATCVALFVVGIAGNLLTMLVVSRFRELRTTTNLYLSSMAFSDLLIFLCMPLDLVRLWQYRPWNFGDLLCKLFQFVSESCTYATVLTITALSVERYFAICFPLRAKVVVTKGRVKLVIFVIWAVAFCSAGPIFVLVGVEHENGTDPWDTNECRPTEFAVRSGLLTVMVWVSSIFFFLPVFCLTVLYSLIGRKLWRRRRGDAVVGASLRDQNHKQTVKMLAVVVFAFILCWLPFHVGRYLFSKSFEPGSLEIAQISQYCNLVSFVLFYLSAAINPILYNIMSKKYRVAVFRLLGFEPFSQRKLSTLKDESSRAWTESSINT
On to B1, for which the “ghrelin-induced cAMP accumulation in HEK293T cells with GHS-R1a, D1R and increasing GHS-R1b cDNA; increase versus control at GHS-R1b/GHS-R1a cDNA ratios of 0, 0.3, 1 and 2 (26%, 72%, 46% and 15%)” value came out at 72 % increase versus control.
